Experimental data from a protein production outcome set (Wang et al. 2014).

assay: label from the status in PepcDB records

With “MMEQALQTITLSCEWSEERQCFWLSSSSPATSWAPLVFAWHEETFYGTLIDSVIVNGREVVQLSPWQALTFFASRPSISFVAIEWKDEFTAQLETWARQIWDDLRERRFRPDFAAWKERRSTLWSEAQHTRWLGLDADPHPFITTWRSLAIADWLSRDPELRDIWQEIIKDYPAILARNDQWISGEDDWLEQIGWLGERPLFTVGLRLVEPPEDGDSWTLETVLIALDDSVVVPVDEIPRAWRPYEQSIARAIRRIETIIPWLGGNGELRNELSDDEAWLFLSEESLKLTEAGVRLLLPDWWHNIRQAQLSIKAKLSPSVHAESLFGLERLSDFDWRVATNGIELTEEEFAAIAEQKRRLIRLRGQWIALDPALVRRAQTLMEKAKQEGVPIHEIVAQTLLAEANARDEATDEHIPIHIDVQNQFRAFIRQLHNIDELPTAVVPPSFHGTLRPYQQRGVDWLAFLRRFGFGACLADDMGLGKTVQLLAYLAYVKETEHPDTPALLICPTSVIGNWQKECARFTPELRVYTHHGPNRAKHEAFLQTAGRADLVITSYSLAHLDGDDLKQLHWHTVCLDEAQNIKNAQTKQARAIRRLRAKHKIALSGTPVENRLNELWSIFHFLNPGYLGSATEFERRFAGPIEKEGDAHKKAALQALIRPFLLRRTKTDEAVALNLPDKLEQKEYCPLTAEQAALYEQLVNDTLERAKAASPFARRGLILQMLNGIKQICNHPALYLKERSPRQLVERSHKLEKLVELVEQIRANDESCLIFTQYVRMGEMIQELLSDLFDEPVLFLNGSVPKPTRDRMVDEFQARKAPIFLLSLKAGGTGLNLTAANHVIHFDRWWNPAVENQATDRAYRIGQTKFVHVHKLITTGTIEEKIDEMLEQKQALADVITEGETWITELSDDELRDLLTLSAAAKGGA” as the sequence, how does the protein production read?
Its protein production is “failed”.

For “MMGNDSYSSNRGSSRDVLSFLQNFLGGFYAKYGIEVKLVGGLSLSKFYYAFDAERNQFLARHFLPVLSYIKKDFNARAALGIVNVDIYEPGFNFIFGLAHPGLKVAVVSLYRLYPEFYGNPPDRKLLKERALKEVMHELGHVFGLGHCPNPKCVMHFSNSIIDTDIKSWMYCESCLRKLEKNLARSHVLEHHHHHH”, which protein production is on record?
Its protein production is “failed”.

For “MMIMERHYTLKEASKILGVSIKTLQRWDKAGKIKCIRTLGGKRRVPESEIKRILGIKDKEQRKIIGYARVSFNAQKDDLERQIQLIKSYAEENGWDIQILKDIGSGLNEKRKNYKKLLKMVMNRKVEKVIIAYPDRLTRFGFETLKEFFKSYGTEIVIINKKHKTPQEELVEDLITIVSHFAGKLYGMHSHKYKKLTKTVKEIVREEDAKEKE”, which protein production is on record?
Its protein production is “failed”.

For “MMIMKRLLFLVSVCSLCMVGNSQNYQPEKHAVVKSDRGDGRLLSTYAIVHEMLKDTHPQYAYRSGMSAQEFTQWQDGVRAAMVEIMKFPEIKRQPSPVCVKTEKKEGYILEKWEFYPFPKSVSTFLVLKPEHLKGAVPGVLCIPGSGRTKEGLVGEPGICDKLTEDYNNPKVSMALNMVKEGYVAVAVDNAAAGEASDLECYDKGWNYDYDVVSRFLLELGWSWLGYTSYLDMQVLNWMKAQSYIRKDRIVISGFSLGTEPMMVLGVLDKDIYAFVYNDFLCQTQERAVVMTKPDKENRRPFPNSIRHLIPGYWRYFNFPDVVASLAPRPIIFTEGGLDRDFRLVQSAYAASGKPENAEFHHYPKFADKAVRKDVEHLDEGLDSKTYFEAVNVDPPSHYFKNELVIPWLRKVLK”, which protein production is on record?
Its protein production is “failed”.

Which protein production does the source give for “MMIQGHLFHQDRKRTFRIVEPFGSTTDALIYFHGSQQSGSVGRSFTNRTFDPLPFMVVYPDGVDQHWNDARLGLDENTRHLGIDDVGFFVKLATHLGNTYGIKRIFIVGYSNGGQMVLRLMHEVPKMLSGAATIASNMPVAENTLPQVKTFKTHPVPYLAMAGTADTFSPYEGGDAGIGREHRRGVGMSAFDSAAYIAARNGLTEHRHDVIDDVVSIDTWDGENPVEFWTLNGIGHLVPSGKTYPEFLGPSTTSVIAAEEIGKFFDGVRRR” here?
Its protein production is “failed”.

Which protein production does the source give for “MMKAEELNKGFVNEIIEAGTPVPGEKEVASLKSCYQCGTCTGSCPSGRRTAYRTRKVIRQALLGIDSVLDSDDIWKCTTCYTCYERCPRDVKVTEIIKTIRNLAAKKGNMATPHKMTAVYVLKAGHAVPANDDTAKLRKSIGLAEKAPIAQFSQKDMDEIRTIAKNLKFDELIGFDWKTMGLKQ” here?
The protein production was “failed”.

With “MMKCTALIVTFNRLEKLKKSVRETVKAGFSSIVIVNNGSSDGTREWLSSLSEPGITILNLKDNLGGAGGFKVGSQYICSYSNADWVFFYDDDAYPEINILKHFSLLDTSRYRIFASRVQDTYGRSCRMNLPFIRVPSTVFETIYYAMRPERFSPVRTQVTDVQTVSFVGMIIDRKVLNNHLNDIHDELFLYYDDFFFGYKLVLSGQKIRYSPEIKFIHDISIHGKCICPEWKVYYLCRNLLLLRKLLPVPRIFSVLSIVLRLSKYLAILPWQRKKFRYLYFIWQGILHGLKGISGKYH” as the sequence, how does the protein production read?
Its protein production is “failed”.

For “MMKDMTTGNPTKLIFLFAMPMLIGNLFQQFYTMIDAVIVGKFVSVDALAAVGATNSVNFFMISLIIGLMSGISVVVAQYFGFKDYDRLKDVIATATYAVVFSAIILTVAGVLLAKPLLILLRTPANILDDSTIFLTTLFIGILPMSLYNGMAAILRALGNSITPLIFLILSSLMNIALDFLFVVYMDMGVRGAAIATVLSQTAAAIAVIYYAYRHVPFMRIERAKFKLSTPLLKEMVRIGLPSGLQGSFISIGNMALQSLINGFGSSVVAAYTAASRIDSLTYQPGIAFGAASSMFAGQNIGAGKIDRVREGFWSGIKVVTAISIGITILVQLFARQFLLLFVDSSETEVINIGVSYLLIVSLFYVVVGILFVVRETLRGTGDAMVPLAMGIFELVSRLVIGFVLSLYIGYVGLWWATPVAWITATILGVWRYKSGAWQKKAVIRRK”, which protein production is on record?
The protein production was “not failed”.

Which protein production does the source give for “MMKKLTALFVASTLALGAANLAHAAETTTAPSDSKPMMMHHKGGPGQHDMMFKGLNLTDAQKQQIRDIMKSQRENMKRPSLEERRAMHDLIASDTFDKAKAEAQIDKMEAQHKAMALSRLETQNKIYNILTPEQKKQFNANFEKHLTERNAPAGKMPAPAE” here?
Its protein production is “failed”.

With “MMKKMMVLYNETSGSSESKEIAERFKKAAEARGEAVILQPSNPDIDPEEMRKNAKENQVGVLVVIGGDGTIHHAVQNFKDTIRDYQIGIIPGGTVNNFARVLSIPLKEEDAFETILAGQTTPVDFGMVNQD” as the sequence, how does the protein production read?
The protein production was “failed”.

Which protein production does the source give for “MMKLVCPSYIAKRKDSLAFKLFSYMTAIVISILLVQALAEQALVKAMLKVPNSVKMEMLDLAHQANVLIEHGDMDELADWANAQQFYLFVLNEQLQPVTHRLMHPHFEFKLQFKRSIDDQLEDKVNRPIISIPLVQQHNLVIQLPHRLHPANDFILYFSIIKVVIAAVILALFSLLMARNLQQPLDRLREASKKLSNGDFNVSVVQELKSNTREFNELAQDFDHMTKEIHSLAEKQRLLIRDVSHELRTPLARQNLVLHLLRKRVGESEQELVTRLEDEAKELNHLISDILEFSRLENARYDKETKRSDLEVLLAPQVERCKIDLRESQSIVFISRVTEPRAYCEDTLVVRCLNNLVGNAIKYAGEDARIEVTLTNQEINGQAYLVMSVSDDGPGIPENKLSDIFNPFTRLDASRDKKLGGYGLGLAIVKESMRMMGGSVNAENRSQGGLTVSLVFRQ” here?
The protein production was “failed”.

With “MMMLPEACIANILAFTSPADAFSSSEVSSVFRLAGDSDFVWEKFLPSDYKSLISQSTDHHWNISSKKEIYRCLCDSLLIDNARKLFKINKFSGKISYVLSARDISITHSDHASYWSWSNVSDSRFSESAELIITDRLEIEGKIQTRVLSANTRYGAYLIVKVTKGAYGLDLVPAETSIKSKNGQISKSATYLCCLDEKKQQMKRLFYGNREERMAMTVEAVGGDGKRREPKCRDDGWMEIELGEFETREGEDDEVNMTLTEVKGYQLKGGILIDGIEVRPKT” as the sequence, how does the protein production read?
Its protein production is “failed”.

For “MMMLPEACVANILAFTSPADAFSSSEVSSVFRLAGDSDFVWEKFLPSHYKSLISQSTDHHRIFSSKKEIYRCLCDSLLIDNARKLFKINKFSGKISYILSARDISITYSDHASYCSWSNVSDSRFSESAELITTDRLEIKGKIQTTVLSPNTKYGAYLIMKVTNGAYGLDLVPAETSVKSKNGQNNKNTTYLCCLDEKKQQMKRLFYGNREERMAMTVEAVGGDGKRREPKARDDGWLEIELGEFVTREGEDDEVNMSLTEVKGYQLKGGIVIDGIEVRPIPLK”, which protein production is on record?
The protein production was “failed”.

Which protein production does the source give for “MMNDYLNFLDGRVSVRRFDPDAVLPNDLIKDMLEHASYAPSGNNFQPWRVVVVKNKNKQEDLKKLAALQPQVATASAVFLLFGDENAYDLTWWQEFHVQKGIITKDEAAARAERIRQYFDLHPEDKETQGLRLDVGLFAMNLMQVVRVYGYDSVPMRGVDFDAIKTYLDMPNGWEPILMLPVGKALQAGNPHVRKSVAEFAEIIE” here?
The protein production was “not failed”.
